Reference: patent US20160046944, “APTAMER TO IL-17 AND USE THEREOF” (THE UNIVERSITY OF TOKYO, published 2016)

T1: IL-17 (Homo sapiens, UniProt Q16552 Q16552:24-155)
T1 sequence: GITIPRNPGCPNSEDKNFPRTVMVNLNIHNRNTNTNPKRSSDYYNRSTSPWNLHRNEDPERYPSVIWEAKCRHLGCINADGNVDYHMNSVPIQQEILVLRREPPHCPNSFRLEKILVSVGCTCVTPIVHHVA

T2: IL-17 (IL-17A) (Homo sapiens, UniProt Q16552 Q16552:24-155)
T2 sequence: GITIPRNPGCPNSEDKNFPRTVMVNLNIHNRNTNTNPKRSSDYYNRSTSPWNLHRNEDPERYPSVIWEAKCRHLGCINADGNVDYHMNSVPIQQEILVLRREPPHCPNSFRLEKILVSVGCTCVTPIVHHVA


Key:
Settings in all cases: chain copies: 2
[1] = target: T1, IL-17; test: cell_activity; NIH3T3 IL-6 release
Procedure: First, human IL-17 and the aptamer produced in Example 1-1 were pre-incubated at 37° C. for 30 min, and added to NIH3T3 cell (ATCC, CRL1658) together with mouse TNFα (2 ng/mL). Then, after incubation for 24 hr, the culture supernatant was collected, and the amount of IL-6 was measured by BD Cytometric Bead Array (BD Biosciences). The IL-17 inhibitory action of each aptamer was determined from the amount of IL-6. For comparison with the aptamer of the present invention, a conventionally-known aptamer (aptamer No. 50) against IL-17 was used.

[2] = target: T1, IL-17; test: SPR; IL-17R-Fc on chip
Procedure: Whether aptamers shown by aptamer Nos. 1-49 inhibit the binding of IL-17 and IL-17 receptor was evaluated by the surface plasmon resonance method.
For the measurement, BIAcore2000 manufactured by BIAcore was used. […] As an analyte, IL-17 (100 or 150 nM) and an aptamer (50 or 100 nM) shown by aptamer No. 1-49 were mixed, maintained for 15 min and after that the mixture was flown.

[3] = target: T2, IL-17 (IL-17A); test: cell_activity; IL-6 release, NIH3T3
Procedure: First, human IL-17 and the aptamer produced in Example 1-2 were pre-incubated at 37° C. for 30 min, and added to NIH3T3 cell (ATCC, CRL1658) together with mouse TNFα (2 ng/mL). Then, after incubation for 24 hr, the culture supernatant was collected, and the production amount of IL-6 was measured by ELISA method described below. The IL-17 inhibitory action of each aptamer was determined from the production amount of IL-6. For comparison with the aptamer of the present invention, a conventionally-known aptamer (aptamer No. 50) against IL-17 was used.
ELISA method for verifying IL-17 inhibitory action of aptamer: A microtiter plate for ELISA was coated with rat anti-mouse IL-6 antibody (BD Biosciences, 2 μg/mL; 100 μL/well) diluted with PBS, and incubated at 4° C. overnight. The next day, the microtiter plate was washed 3 times with PBS/0.05% Tween 20, and applied blocking with PBS/1% BSA (200 μL/well) at room temperature for 2 hr. Then, the plate was washed 3 times with PBS/0.05% Tween 20. Recombinant mouse IL-6 (BD Biosciences; 100 μL/well) serially diluted with PBS/1% BSA/0.05% Tween 20 or culture supernatants (100 μL/well) were added to the plate. After incubation at room temperature for 2 hr, the plate was washed 3 times with PBS/0.05% Tween 20. Then, 100 μL/well of biotin conjugated rat anti-mouse IL-6 antibody (BD Biosciences) was added to the plate at final dilution of 1/500, and the mixture was reacted at room temperature for 1 hr. After washing 3 times with PBS/0.05% Tween 20, 100 μL/well of alkaline phosphatase conjugated streptavidin was added at final dilution of 1/1000. After 30 min at room temperature, the plate was again washed 4 times with PBS/0.05% Tween 20, and a substrate (1-Step PNPP; Thermo Fisher Scientific Inc; 100 μL/well) was added. After 15 min, aqueous sodium hydroxide solution (2N: 50 μL/well) was added to stop the reaction, and the plate was read on a microtiter reader (Bio-Rad) by using a 405 nm filter.

Binder | IC50 [1] [nM] | binding signal [2] | IC50 [3] [nM]
GGGUAGCCGGAGGAGUCAGUAAUCGGUACCC (mixed, LNA (L), 2'-F (F), PS (S), mc methylcytosine as marked; SEQ ID NO:1 [LNA at 1-3,29-31 (29-31 methylcytosine); 2'-F at 4,7,8,16,17,20,23,24,27; PS at 6,9]) [aptamer No. 1] | 1.17 | 28.6 % IL-17/IL-17R binding remaining | 
GGGUAGCCGGAGGAGUCAGUAAUCGGUACCC (mixed, g(M)g(M)g(M)u(M)a(M)g(S)c(M)c(M)Gg(M)a(F)gg(M)a(M)gu(F)c(F)a(F)gu(F)a(M)a(M)u(M)c(M)g(M)g(M)u(F)Ac(M)c(M)c(M)) [aptamer No. 80] |  |  | 1.52
GGGUAGCCGGAGGAGTCAGTAAUCGGUACCC (mixed, 2'-OMe (M), 2'-F (F) as marked; uppercase DNA [2'-OMe: 1-4,7,8,10,13,14,21,23-26,28; 2'-F: 6,11,17,18,27]) [aptamer No. 15] | 0.63 | 14.2 % IL-17/IL-17R binding remaining | 
GGGUAGCCGGAGGAGTCAGTAAUCGGUACCC (mixed, 2'-OMe (M), 2'-F (F) as marked; uppercase DNA [1,2,3,4,6,7,8,10,11,13,14,17,18,21,22,23,24,25,26,27,28]) [aptamer No. 14] | 0.5 | 16.5 % IL-17/IL-17R binding remaining | 
GGGUAGCCGGAGGAGUCAGUAAUCGGUACCC (mixed, g(M)g(M)g(M)u(M)a(M)gc(M)c(M)Gg(M)a(F)gg(M)a(M)gu(F)c(F)a(F)gu(F)a(M)a(M)u(M)c(M)g(M)g(M)u(F)Ac(M)c(M)c(M)) [aptamer No. 76] |  |  | 1.7
GGGUAGCCGGAGGAGTCAGTGAUCGGUACCC (mixed, g(M)g(M)g(M)u(M)a(M)g(S)c(M)c(M)Gg(M)a(M)gg(M)a(M)g(S)Tc(M)a(F)g(S)Tg(M)a(M)u(M)c(M)g(M)g(M)u(M)a(M)c(M)c(M)c(M)) [aptamer No. 86] |  |  | 5.16
GGGUAGCCGGAGGAGUCAGUAAUCGGUACCC (mixed, g(M)g(M)g(M)u(M)a(M)g(S)c(M)c(M)Gg(M)a(M)gg(M)a(M)g(S)u(F)c(F)a(F)g(S)u(F)aau(M)c(M)g(M)g(M)u(F)a(M)c(M)c(M)c(M)) [aptamer No. 94] |  |  | 0.29
GGGUAGCCGGAGGAGUCAGUAAUCGGUACCC (ssRNA, g(M)g(M)g(M)u(M)a(M)gc(M)c(M)gg(M)a(F)gg(M)a(M)gu(F)c(F)a(F)gu(F)a(M)a(M)u(M)c(M)g(M)g(M)u(M)a(M)c(M)c(M)c(M)) [aptamer No. 79] |  |  | 2.25
GGGUAGCCGGAGGAGUCAGUAAUCGGUACCC (mixed, g(M)g(M)g(M)u(M)a(M)g(S)c(M)c(M)Gg(M)a(F)gg(M)a(M)g(S)u(F)c(F)a(F)g(S)u(F)a(M)a(M)u(M)c(M)g(M)g(M)u(F)Ac(M)c(M)c(M)) [aptamer No. 68] |  |  | 2.4
GGGUAGCCGGAGGAGTCAGTAAUCGGUACCC (mixed, g(M)g(M)g(M)u(M)a(M)g(S)c(M)c(M)Gg(M)a(F)gg(M)a(M)g(S)Tc(F)a(F)g(S)Ta(M)a(M)u(M)c(M)g(M)g(M)u(F)a(M)c(M)c(M)c(M)) [aptamer No. 63] |  |  | 0.81
GGGUAGCCGGAGGAGTCAGTAAUCGGTACCC (mixed, 2'-OMe (M), 2'-F (F) as marked; uppercase DNA [2'-OMe: 1-4,7,8,10,13,14,23-26,28-31; 2'-F: 17]) [aptamer No. 22] | 1.66 |  | 
GGGUAGCCGGAGGAGTCAGTAAUCGGUACCC (mixed, 2'-OMe (M), 2'-F (F), PS (S) as marked; uppercase DNA [1,2,3,4,5,6,7,8,10,11,13,14,17,18,21,23,24,25,26,27]) [aptamer No. 10] | 0.63 | 25.2 % IL-17/IL-17R binding remaining | 
GGGUAGCCGGAGGAGTCAGTAAUCGGUACCC (mixed, g(M)g(M)g(M)u(M)a(M)g(S)c(M)c(M)Gg(M)a(F)gg(M)a(M)g(S)Tc(M)a(F)g(S)Ta(M)a(M)u(M)c(M)g(M)g(M)u(F)a(M)c(M)c(M)c(M)) [aptamer No. 64] |  |  | 4.64
GGGUAGCCGGAGGAGTCAGTAAUCGGUACCC (mixed, g(M)g(M)g(M)u(M)Ag(S)c(M)c(M)Gg(M)a(F)gg(M)a(M)g(S)Tc(F)a(F)g(M)Ta(M)a(M)u(M)c(M)g(M)g(M)u(F)a(M)c(M)c(M)c(M)) [aptamer No. 59] |  |  | 1.19
GGGUAGCCGGAGGAGUCAGUAAUCGGUACCC (mixed, g(M)g(M)g(M)u(M)a(M)g(S)c(M)c(M)Gg(M)a(M)gg(M)a(M)g(S)u(F)c(F)a(F)g(S)u(F)aa(M)u(M)c(M)g(M)g(M)u(F)a(M)c(M)c(M)c(M)) [aptamer No. 92] |  |  | 2.6
GGGUAGCCGGAGGAGTCAGTAAUCGGUACCC (mixed, g(M)g(M)g(M)u(M)a(M)g(S)c(M)c(M)Gg(M)a(F)gg(M)a(M)gTc(F)a(F)gTa(M)a(M)u(M)c(M)g(M)g(M)u(M)a(M)c(M)c(M)c(M)) [aptamer No. 65] |  |  | 0.67
GGGUAGCCGGAGGAGUCAGUAAUCGGUACCC (mixed, g(M)g(M)g(M)u(M)a(M)g(S)c(M)c(M)Gg(M)a(M)gg(M)a(M)g(S)u(F)c(F)a(F)g(S)u(F)a(M)a(M)u(M)c(M)g(M)g(M)u(F)a(M)c(M)c(M)c(M)) [aptamer No. 85] |  |  | 0.96
GGGUAGCCGGAGGAGTCAGTAAUCGGUACCC (mixed, 2'-OMe (M), 2'-F (F) as marked; uppercase DNA; (N) printed, likely (M) [1,2,3,4,7,8,10,11,13,14,17,18,21,23,24,25,26,27,28]) [aptamer No. 13] | 0.4 | 13.8 % IL-17/IL-17R binding remaining | 
GGGUAGCCGGAGGAGTCAGTAAUCGGUACCC (mixed, 2'-OMe (M), 2'-F (F), PS (S) as marked; uppercase DNA [1,2,3,4,6,7,8,10,11,13,14,17,18,23,24,25,26,27,28]) [aptamer No. 8] | 0.49 | 15.3 % IL-17/IL-17R binding remaining | 
GGGUAGCCGGAGGAGTCAGTAAUCGGUACCC (mixed, g(M)g(M)g(M)u(M)a(M)g(S)c(M)c(M)Gg(M)a(M)gg(M)a(M)g(S)Tc(M)a(F)g(S)Taau(M)c(M)g(M)g(M)u(M)a(M)c(M)c(M)c(M)) [aptamer No. 91] |  |  | 3.86
GGGUAGCCGGAGGAGTCAGTAAUCGGUACCC (mixed, g(M)g(M)g(M)u(M)Ag(S)c(M)c(M)Gg(M)a(F)gg(M)a(M)g(S)Tc(F)a(F)g(S)Ta(M)a(M)u(M)c(M)g(M)g(M)u(F)a(M)CCC) [aptamer No. 56] |  |  | 0.52
GGGUAGCCGGAGGAGTCAGTAAUCGGTACCC (mixed, 2'-OMe (M), 2'-F (F), PS (S) as marked; uppercase DNA [2'-OMe: 1-4,7,8,10,13,14,23-26,28-31; 2'-F: 17; PS: 6]) [aptamer No. 21] | 0.39 |  | 
